Target: T1, Chlamydomonas IFT172 (intraflagellar transport protein 172), recombinant full-length, C-terminal His-tag (Chlamydomonas reinhardtii, UniProt Q5DM57 1-1755)
T1 construct: Gene synthesised or sub-cloned into MCS2 of the pFL vector; no removal of the His-tag is described; The detergent-free monomer was used in the liposome sedimentation assays; also called IFT172-His tag; IFT172 monomer; source: HighFive insect cells (baculovirus), purified (His60 Ni Resin, SEC on Superose 6; with 0.1% DDM for the monomer, or with HiTrapQ-Sepharose anion exchange for the …)
Test: co-sedimentation; liposome co-sedimentation: IFT172 with Folch fraction I MLV and rising amounts of IFT57; 20 mM Hepes, 150 mM NaCl, pH 7.5, 15 min on ice, 135,000 xg for 20 min, supernatant and pellet by SDS-PAGE; binding of IFT57 to IFT172 is read from the loss of IFT172 from the liposome pellet
Conditions: both partners purified

T1 sequence (Q5DM57 whole entry): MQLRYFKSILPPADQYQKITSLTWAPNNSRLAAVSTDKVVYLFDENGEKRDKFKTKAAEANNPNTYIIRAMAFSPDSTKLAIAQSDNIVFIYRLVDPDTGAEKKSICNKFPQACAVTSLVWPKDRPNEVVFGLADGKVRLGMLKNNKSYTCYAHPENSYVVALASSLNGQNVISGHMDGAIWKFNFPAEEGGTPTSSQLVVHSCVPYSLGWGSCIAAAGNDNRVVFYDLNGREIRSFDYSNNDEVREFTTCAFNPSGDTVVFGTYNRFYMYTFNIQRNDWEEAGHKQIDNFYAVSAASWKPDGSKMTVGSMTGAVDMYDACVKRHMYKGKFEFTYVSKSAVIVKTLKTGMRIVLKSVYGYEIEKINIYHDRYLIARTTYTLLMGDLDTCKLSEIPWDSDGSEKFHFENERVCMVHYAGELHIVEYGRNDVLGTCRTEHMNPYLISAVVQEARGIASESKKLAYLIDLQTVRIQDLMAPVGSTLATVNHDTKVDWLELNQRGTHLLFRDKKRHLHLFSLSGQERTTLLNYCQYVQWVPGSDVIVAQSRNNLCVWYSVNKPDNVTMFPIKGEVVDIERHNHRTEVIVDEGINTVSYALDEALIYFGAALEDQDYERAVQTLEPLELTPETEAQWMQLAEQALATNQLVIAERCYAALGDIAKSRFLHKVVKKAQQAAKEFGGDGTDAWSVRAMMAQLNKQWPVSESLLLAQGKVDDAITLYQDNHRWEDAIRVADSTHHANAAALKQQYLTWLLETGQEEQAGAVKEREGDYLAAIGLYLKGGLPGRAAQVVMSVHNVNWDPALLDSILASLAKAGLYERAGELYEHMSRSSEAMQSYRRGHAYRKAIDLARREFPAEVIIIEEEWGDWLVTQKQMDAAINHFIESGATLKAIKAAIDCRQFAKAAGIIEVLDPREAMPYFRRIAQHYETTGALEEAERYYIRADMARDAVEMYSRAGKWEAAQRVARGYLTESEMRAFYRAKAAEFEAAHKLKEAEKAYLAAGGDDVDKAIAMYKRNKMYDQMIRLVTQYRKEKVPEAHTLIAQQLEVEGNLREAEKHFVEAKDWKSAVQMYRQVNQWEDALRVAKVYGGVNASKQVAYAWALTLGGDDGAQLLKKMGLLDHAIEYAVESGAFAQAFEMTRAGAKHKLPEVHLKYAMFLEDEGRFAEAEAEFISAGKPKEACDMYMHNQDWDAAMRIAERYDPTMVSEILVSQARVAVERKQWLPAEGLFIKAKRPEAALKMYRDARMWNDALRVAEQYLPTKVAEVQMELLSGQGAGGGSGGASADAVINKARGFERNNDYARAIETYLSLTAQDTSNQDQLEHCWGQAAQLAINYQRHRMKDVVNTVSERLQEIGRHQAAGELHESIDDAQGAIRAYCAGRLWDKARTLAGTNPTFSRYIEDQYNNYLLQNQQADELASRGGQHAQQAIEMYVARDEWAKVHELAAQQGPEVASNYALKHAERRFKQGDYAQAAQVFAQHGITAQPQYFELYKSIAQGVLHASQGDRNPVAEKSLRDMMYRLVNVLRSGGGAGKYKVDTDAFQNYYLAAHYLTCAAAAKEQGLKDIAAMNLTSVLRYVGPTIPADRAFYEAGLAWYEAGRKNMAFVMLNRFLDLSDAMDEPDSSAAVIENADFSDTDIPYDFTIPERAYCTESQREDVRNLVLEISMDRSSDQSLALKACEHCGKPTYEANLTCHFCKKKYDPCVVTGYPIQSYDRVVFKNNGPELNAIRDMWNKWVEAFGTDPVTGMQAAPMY

B1: Chlamydomonas IFT57 (intraflagellar transport protein 57), full-length (natural protein, UniProt Q2XQY7 1-469, looked up)
chain: MSSKRGGRSSLAKAPEEAVNGEAFAPEASPPPPGDDGDAGGEDGGAPAPPPPPATKGGPVAVGRSLEIQTTPDVCMEMLADKLKLLNYEADFCRKKKPYRKPLSRLYFAVPLANSSEQFFYFTSLATWLLGLAGVELPAPKEFDDPNLTCQNILGAVKKLGFAPPSYHPTKLTVGNGKEVVGVLDGLVDFVLERRHHKYSRPAYGNDGQPEEGVQLDDEAEAAAMEGADELAMPAQNQADDDEEEEGVYVDPGRGDAAGPGTGASAAMDAEKAVLVSKVDPTLWKIELERVAPKLRITIAADSKDWRSHLDEAHQHKEVISKAWPDSKTSLERLRADLNGTLEKLQTREKFLNEQFESLMQQYRAARTTFTDVQETYNRKTEAVADRNQEMHRIGETLEEVKAMMDEKGSNIADATPVARIKTAIKQLNKELHDMEVRIGVVSHTLLQLSLRNKRLLQAQAALSDEEED
notes: IFT57 from Chlamydomonas, full length, cloned into the pEC vector; source: E. coli BL21 (DE3), purified (Ni-NTA, TEV cleavage, HiTrapQ-Sepharose, SEC); not shown: His tag, N-terminal, cleaved
B1: binds.
